# In patent US10772928B2, “Modulation and detection of a neuronal alternative splicing regulatory network for treatment and diagnosis of neurological disorders” (The Governing Council of the University of Toronto, priority 2014, dated 2020):
# T1: nSR100 (Mus musculus, UniProt Q8BKA3)
# T1 construct: host or cells: mouse N2A cells
# T1 sequence (Q8BKA3 1-608): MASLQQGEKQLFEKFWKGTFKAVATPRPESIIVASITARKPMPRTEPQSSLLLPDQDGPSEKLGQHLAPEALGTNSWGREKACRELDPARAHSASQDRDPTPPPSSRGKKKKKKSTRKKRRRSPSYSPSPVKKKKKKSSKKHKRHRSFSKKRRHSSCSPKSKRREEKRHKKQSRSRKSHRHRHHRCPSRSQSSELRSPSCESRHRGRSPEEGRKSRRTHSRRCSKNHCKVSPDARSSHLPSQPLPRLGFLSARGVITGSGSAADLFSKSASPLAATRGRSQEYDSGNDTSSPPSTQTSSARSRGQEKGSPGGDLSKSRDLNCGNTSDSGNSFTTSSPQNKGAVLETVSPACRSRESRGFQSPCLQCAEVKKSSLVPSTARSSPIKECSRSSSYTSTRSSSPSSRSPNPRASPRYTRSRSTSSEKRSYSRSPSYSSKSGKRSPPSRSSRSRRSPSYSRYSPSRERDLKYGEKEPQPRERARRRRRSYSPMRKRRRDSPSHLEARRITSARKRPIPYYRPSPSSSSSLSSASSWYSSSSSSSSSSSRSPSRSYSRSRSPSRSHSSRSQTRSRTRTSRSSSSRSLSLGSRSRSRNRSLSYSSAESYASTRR
# Target: T1, nSR100
# Assay: AP-MS nSR100 interaction partners from mouse N2A cells (Table 5)
# Type: binding
# Settings: for Spectra (number of spectra for the prey in the purification of the bait): AP-MS
# Text: By applying affinity purification coupled to mass-spectrometry (AP-MS), several interaction nSR100 partner proteins were detected that provide insight into mechanisms of post-translational regulation of nSR100 levels.
molecule,measurement,setting,value
"Wdr6 (protein, UniProt Q99ME2 1-1125, looked up) tRNA …: MDAFGDYVWPRATSELILLPVTGLECVGDRLLAGEGPDLLVYNLDLGGHLRMVKRVQNLLGHFLIHGFRVRPEPKGDLDSEAMIAVFGSKGLKVVKVSWGQSHLRELWRSGLWNMSDWIWDVRWIEGNVAVALGHNSVVLYDPVIGCMLQDVPCTDRCTLSSACLVGDTWKELTIVAGAVSNELLIWYPATALTDNKPVAPDRRVSGHVGVIFSMSYLESKGLLATASEDRSVRLWKVGDLRVPGGRVQNIGHCFGHSARVWQVKLLENYLISAGEDCVCLVWSHEGEILQAFRGHRGRGIRAIATHERQAWVVTGGDDSGIRLWHLAGRGYPGLGVSSLSFKSPSRPGALKAVTLAGSWRVLAVTDVGSLYLYDLEVKSWEQLLEDNRFRSYCLLEAAPGPEGFGLCALANGEGLVKVVPINTPTAAVEQKLFQGKVHSLSWALRGYEELLLLASGPGGVIACLEISAAPTGKAIFVKERCRYLLPPSKQRWHTCSAFLPPGDFLVCGDRRGSVMLFPVRPCLFKKPGAGSKAITAAEAPGAGSGSGGSESVPTGIGPVSTLHSLHGKQGVTSVTCHGGYLYSTGRDSSYFQLFVHGGHLQPVLRQKACRGMNWVAGLRMVPDGSMVILGFHANEFVVWSPRSHEKLHIVNCGGGHRSWAFSDTEAAMAFTYLKDGEVMLYRALGGCIRPNVILREGLHGREITCVKRVGTVTLGPEFEVPNLEHPDSLEPGSEGPGLIDIVITGSEDTTVCVLALPTTTGSAHALTSVCNHISSVRALAVWAVGTPGGPQDTRPGLTAQVVSAGGRAEIHCFSVMVTPDASTPSRLACHVMHLSSHRLDEYWDRQRNKHKMIKVDPETRYMSLAICELDNDRPGLGPGPLVAAACSDGAVRLFLLQDSGRILHLLAESFHHKRCVLKVHSFTHEAPNQRRRLILCSAATDGSLAFWDLTTAMDKGSTTLELPAHPGLPYQMGTPSMTVQAHSCGVNSLHTLPTPEGHHLVASGSEDGSLHVFTLAVKMPEPEEADGEAELVPQLCVLEEYSVPCAHAAHVTGVKILSPKLMVSASIDQRLTFWRLGQGEPTFMNSTVYHVPDVADMDCWPVSPEFGHRCALAGQGLEVYNWYD",AvgP (average of the SAINT scores),bait Srrm4,1
same,MaxP (maximal SAINT score),bait Srrm4,1
same,FoldChange between the prey Avg spectra of the bait and control purifications,"bait Srrm4, 0.1 added to prevent division by 0",160
same,AvgSpec (average number of spectra per replicate),"bait Srrm4, 2 replicates",16
same,Spectra (number of spectra for the prey in the purification of the bait),"bait Srrm4, biological replicate 1 (first number of the cell)",13
same,Spectra (number of spectra for the prey in the purification of the bait),"bait Srrm4, biological replicate 2 (second number of the cell)",19
same,SpecSum,"bait Srrm4, sum of spectra over 2 replicates",32
